Our source for the EC50 and IC50 values is US20260374861 (published 2026).

Usually EC50 stands for the concentration needed to bring the measured effect to its halfway point. What is called IC50 is the concentration needed to halve the response being measured.

In experiment [1] the target is human ILT4-ECD (human). Put plainly: ELISA.
For experiment [2], the target named is monkey ILT4-ECD (cynomolgus). Nature of the experiment: ELISA. Background: In an ELISA, binding on a coated surface is turned into a signal by an enzyme label.
Sequence of monkey ILT4-ECD (cynomolgus) (chain, as listed by the source): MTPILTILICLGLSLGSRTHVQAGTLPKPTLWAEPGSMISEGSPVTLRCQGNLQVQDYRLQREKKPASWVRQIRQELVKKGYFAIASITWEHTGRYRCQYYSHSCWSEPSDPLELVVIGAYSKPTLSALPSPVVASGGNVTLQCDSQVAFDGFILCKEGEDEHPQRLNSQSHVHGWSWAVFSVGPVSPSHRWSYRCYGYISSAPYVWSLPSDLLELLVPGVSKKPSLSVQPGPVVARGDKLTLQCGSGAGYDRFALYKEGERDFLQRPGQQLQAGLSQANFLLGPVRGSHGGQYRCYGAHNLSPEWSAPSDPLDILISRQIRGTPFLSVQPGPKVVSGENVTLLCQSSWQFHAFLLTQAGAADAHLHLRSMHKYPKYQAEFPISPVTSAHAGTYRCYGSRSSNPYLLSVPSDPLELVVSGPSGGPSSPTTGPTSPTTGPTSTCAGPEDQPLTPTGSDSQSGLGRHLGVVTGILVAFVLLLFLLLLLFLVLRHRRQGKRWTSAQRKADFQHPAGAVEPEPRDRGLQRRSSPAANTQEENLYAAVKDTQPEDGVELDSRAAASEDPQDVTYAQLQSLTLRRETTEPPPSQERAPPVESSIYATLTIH
The target in experiment [3] is huILT4 protein (human). Put plainly: competition, FACS, blocking HLA-G.
Sequence of huILT4 protein (human) (chain, as listed by the source): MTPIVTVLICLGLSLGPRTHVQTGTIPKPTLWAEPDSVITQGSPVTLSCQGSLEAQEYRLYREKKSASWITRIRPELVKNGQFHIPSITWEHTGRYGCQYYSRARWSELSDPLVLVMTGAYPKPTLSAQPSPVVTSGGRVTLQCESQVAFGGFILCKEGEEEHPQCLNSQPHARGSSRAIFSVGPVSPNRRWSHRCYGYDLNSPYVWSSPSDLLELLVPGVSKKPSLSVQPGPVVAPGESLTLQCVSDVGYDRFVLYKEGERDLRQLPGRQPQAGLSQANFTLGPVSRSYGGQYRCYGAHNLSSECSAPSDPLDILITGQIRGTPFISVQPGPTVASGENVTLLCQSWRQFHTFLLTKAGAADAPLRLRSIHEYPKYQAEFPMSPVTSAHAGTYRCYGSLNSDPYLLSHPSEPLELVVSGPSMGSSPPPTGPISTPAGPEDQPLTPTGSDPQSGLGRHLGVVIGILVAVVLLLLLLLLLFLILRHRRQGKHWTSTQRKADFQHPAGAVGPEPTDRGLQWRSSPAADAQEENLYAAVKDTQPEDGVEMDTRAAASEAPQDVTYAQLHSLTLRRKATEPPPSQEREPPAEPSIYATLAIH
Experiment [4] concerns the target human ILT4 (cell surface) (human). Nature of the experiment: FACS. On the technique in general: In flow cytometry, cells or beads pass a laser one at a time.
The target of experiment [5] is huILT4 protein (human). Nature of the experiment: competition, ELISA, blocking SEMA4A.

Sequence of human ILT4-ECD (human) (chain, as listed by the source): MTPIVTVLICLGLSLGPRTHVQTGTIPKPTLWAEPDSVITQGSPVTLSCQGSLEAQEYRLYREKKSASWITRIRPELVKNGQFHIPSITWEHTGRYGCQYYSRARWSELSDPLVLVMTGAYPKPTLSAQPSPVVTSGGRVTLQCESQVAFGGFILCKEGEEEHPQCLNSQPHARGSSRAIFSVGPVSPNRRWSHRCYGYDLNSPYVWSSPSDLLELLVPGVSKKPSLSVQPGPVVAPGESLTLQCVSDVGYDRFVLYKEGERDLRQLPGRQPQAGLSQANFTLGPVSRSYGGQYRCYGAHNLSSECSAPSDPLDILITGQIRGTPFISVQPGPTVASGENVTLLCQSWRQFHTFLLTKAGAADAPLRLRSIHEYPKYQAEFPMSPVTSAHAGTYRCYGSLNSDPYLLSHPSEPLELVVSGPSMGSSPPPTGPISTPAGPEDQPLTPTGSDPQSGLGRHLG

B1: PR302264 (antibody, V domains shown)
VH: QVQLQQWGAGLLKPSETLSLTCAVYGGSLSGYYWSWIRQPPGKGLEWIGEINHSGGTNYNPSLKSRVTISVPTSKNQFSLKLTSVTAADTAVYYCARGQQQLDWYFDLWGRGTLVTVSS
VL: EIVMTQSPATLSVSPGERATLSCRASQNIYSHLVWYQQKPGQAPRLLIYGASTRATGIPARFSGSGSGTEFTLTITSLQSEDFTVYYCQQYNDWPPITFGQGTRLEIR
Turning to B1, the EC50 in experiment [1] is 0.026 nM; in experiment [2], 0.935 nM.

B2: PR303413 (antibody, V domains shown)
VH: QVQLVESGGGVVQPGRSLRLSCAASGFTFSSYGMHWVRQAPGKGLGWVAGIWYAGSNEYYVDSVKGRFIISRDNSKNTLYLQMNSLRAEDTAVYYCARDQGWGTMDAWGQGASVTVSS
VL: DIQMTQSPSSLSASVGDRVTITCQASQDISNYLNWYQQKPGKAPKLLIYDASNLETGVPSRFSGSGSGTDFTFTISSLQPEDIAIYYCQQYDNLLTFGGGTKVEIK
In the case of B2, the results for the EC50 in experiment [1] and in experiment [4] were 0.021 nM and 0.345 nM, respectively. For the same molecule, the IC50 in experiment [3] was found to be 5.33 nM; in experiment [5], 40.9 nM.

B3: PR302934 (antibody, V domains shown)
VH: QVQLQQWGAGLLKPSETLSLTCAVYGGSFSGYYWSWIRQTLGKGLEWIGEVSHSGGTNYNPSLKSRVTISVDTSKNQFSLKLSSVTAADTAVYYCARSPYYGDYMYVFDIWGQGTMVTVSS
VL: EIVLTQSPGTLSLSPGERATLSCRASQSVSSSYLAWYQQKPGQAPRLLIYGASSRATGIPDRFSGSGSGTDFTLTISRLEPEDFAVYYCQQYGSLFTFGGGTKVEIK
With B3, the EC50 in experiment [1] is 0.012 nM; in experiment [2], 0.047 nM.

B4: PR301366 (antibody, V domains shown)
VH: EVQLLESGGGLVQPGGSLRLSCAASGFTFSNYAMNWVRQAPGKGLEWVSVISVSGGSTYYADSVKGRFTISRDNSKNTLYLQMNSLRAEDTAVYYCAKDYYYDSGSYYDSFFDYWGQGTLVTVSS
VL: not shown
Regarding B4, the EC50 amounted to 0.014 nM in experiment [1], 0.401 nM in experiment [2] and 0.362 nM in experiment [4]. Further, the IC50 in experiment [3] came to 3.99 nM; in experiment [5], 34.8 nM.

B5: PR302259-1 (antibody, V domains shown)
VH: EVQLLESGGGLVQPGGSLRLSCAVSGFTFSSYAMSWVRQAPGKGLEWVSAISDNAGSTYYADSVKGRFTISRDNSKNTLHLQMNSLRAEDTAVYSCAKERQWLVLGVMDAWGQGASVTVSS
VL: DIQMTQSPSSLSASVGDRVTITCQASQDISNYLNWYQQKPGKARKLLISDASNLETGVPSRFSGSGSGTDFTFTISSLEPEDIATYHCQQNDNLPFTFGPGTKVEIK
Take B5: the EC50 in experiment [1] was 0.012 nM; in experiment [4], 0.262 nM.

B6: PR302259 (antibody, V domains shown)
VH: EVQLLESGGGLVQPGGSLRLSCAVSGFTFSSYAMSWVRQAPGKGLEWVSAISDNAGSTYYADSVKGRFTISRDNSKNTLHLQMNSLRAEDTAVYSCAKERQWLVLGVMDAWGQGASVTVSS
VL: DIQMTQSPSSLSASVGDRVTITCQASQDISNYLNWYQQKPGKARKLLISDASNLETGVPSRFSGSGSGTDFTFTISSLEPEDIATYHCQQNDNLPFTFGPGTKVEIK
Consider B6, for which the values for the IC50 in experiment [3] and in experiment [5] were 3.4 nM and 34.1 nM, respectively.

B7: PR302927 (antibody, V domains shown)
VH: EVQLLESGGGLVQPGGSLRLSCAASGFTFSSYAMSWVRQAPGKGLEWVSTINHIGDSTYYADSVKGRFTISRDNSKNTLYLQMNSLRAEDTAVYYCAKDQWFGVFDYWGQGTLVTVSS
VL: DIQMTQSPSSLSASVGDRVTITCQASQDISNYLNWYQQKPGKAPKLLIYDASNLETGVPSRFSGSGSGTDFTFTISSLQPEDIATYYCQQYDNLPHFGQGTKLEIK
For the molecule B7, the midpoint of the response in experiment [1], the EC50, lay at 0.025 nM. The IC50 is 10.6 nM in experiment [3] and 61.5 nM in experiment [5].

B8: PR302239 (antibody, V domains shown)
VH: QVQLQESGPGLVKPSETLSLTCTVSGDSISSYYWSWIRQPPGKGLEWIGFIYYSGSTNYNPSLKSRVTISVDTSKNQFSLKLTSVTAADTAVYYCANQLWFGESPFDYWGQGTLVTVSS
VL: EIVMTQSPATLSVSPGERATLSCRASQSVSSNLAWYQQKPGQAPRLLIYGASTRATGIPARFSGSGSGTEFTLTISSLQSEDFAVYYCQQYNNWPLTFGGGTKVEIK
In experiment [3], B8 displayed an IC50 of 6.49 nM.

B9: PR302239-1 (antibody, V domains shown)
VH: QVQLQESGPGLVKPSETLSLTCTVSGDSISSYYWSWIRQPPGKGLEWIGFIYYSGSTNYNPSLKSRVTISVDTSKNQFSLKLTSVTAADTAVYYCANQLWFGESPFDYWGQGTLVTVSS
VL: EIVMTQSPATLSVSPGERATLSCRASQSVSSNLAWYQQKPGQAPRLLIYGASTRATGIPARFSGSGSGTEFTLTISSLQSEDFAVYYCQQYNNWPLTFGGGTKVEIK
Regarding B9, the EC50 came out at 0.036 nM in experiment [1] and 0.931 nM in experiment [4].

B10: PR302949 (antibody, V domains shown)
VH: EVQLLESGGGLVQPGGSLRLSCAASGFTFSSYAMSWVRQAPGKGLEWVSSISGSDFSTYYADSVKGRFTISRDTSKNTLYLQMNSLRAEDTAVYYCAKDRQWLVSSFDFWGQGALVTVSS
VL: DIQMTQSPSSLSASVGDRVTITCQASQDISNYLNWYQQKPGKAPKLLIYDASNLETGVPSRFSGSGSGTDFTFTISSLQPEDIATYYCQQYDNLITFGQGTRLEIK
B10: a half-maximal effect in experiment [1] (EC50) was put at 0.023 nM. In addition, the IC50 in experiment [3] was found to be 8.86 nM; in experiment [5], 47.9 nM.

B11: PR302951 (antibody, V domains shown)
VH: EVQLLESGGGLVQPGGSLRLSCAASRFTFSTYAMSWVRQAPGKGLEWVSSISGSGFNTYYADSVKGRFTISSDSSKNTLYLQMNSLRAEDTAVYYCAKDRQWLVSSFDYWGQGTLVTVSS
VL: DIQMTQSPSSLSASVGDRVTITCQASQDISNYLNWYQQKPGKAPKLLIYDASNLETGVPSRFSGSGSGTDFTFTISSLQPEDIATYYCQQYDNLITFGQGTRLEIK
In experiment [1], B11 displayed an EC50 of 0.015 nM. Further, the values for the IC50 in experiment [3] and in experiment [5] were 8.6 nM and 52.9 nM, respectively.

B12: PR302282 (antibody, V domains shown)
VH: QVQLVESGGTVVQSGRSLRLSCAASGFTFSSYGMHWVRQAPGKGLEWVAGMWYDGNYKYYADSVKGRFTISRDNSKNTLSLQMNSLRAEDTAVYYCARDSPIGVFDYWGQGTLVTVSS
VL: DIQMTQSPSSLSASVGDRVTITCQASQDISNYLNWYQQKPGKAPKLLIYDASNLETGVPSRFSGSGSGTDFTFTISSLQPEDIATYYCQQYDNLITFGQGTRLEIK
For the molecule B12, the figures for the EC50 in experiment [1] and in experiment [4] were 0.015 nM and 1.88 nM, respectively. Further, the IC50 in experiment [5] amounted to 48.1 nM.

B13: PR302702 (antibody, V domains shown)
VH: EVQLLESGGGLVQPGGSLRLSCAASGFTFSTYAMTWVRQAPGKGLEWVSSISGSDFNTYYADSVKGRFTISRDISKNTLYLQMNSLRAEDTAVYYCAKDQEWLVRSFHHWGQGTLVTVSS
VL: DIQMTQFPSSLFAFVGDRVTITCQASQDISNYLNWYQQKAGKAPKLLINDASNLETGVPSRFSGSGFGTDFTFTISSLQPEDFATYYCQQYENLPTFGGGTKVEIK
Molecule B13 displayed an EC50 in experiment [1] of 0.029 nM.

B14: PR302950 (antibody, V domains shown)
VH: QVQLQESGPGLVKPSGTLSLTCAVSGGSISSSNWWSWVRQPPGKGLEWIGEVYHSGSTNYNPSLKSRVTISVDKSQNQFSLKLTSVTAADTAVYYCARVTGNKDYYYYDLDVWGQGTTVTVSS
VL: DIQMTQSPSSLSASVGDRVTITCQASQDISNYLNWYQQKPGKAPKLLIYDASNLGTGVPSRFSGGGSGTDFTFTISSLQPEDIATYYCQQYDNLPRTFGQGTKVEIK
Molecule B14 had an EC50 in experiment [1] of 0.056 nM. The IC50 was found to be 9.34 nM in experiment [3] and 65 nM in experiment [5].

B15: PR302261 (antibody, V domains shown)
VH: EVQLLESGGGLVQSGGSLRLSCAASGFTFSSYAMSWVRQAPGKGLGWVSTISGSGGSAYYADSVKGRFTVSRDNSKKTLYLQMNSLRAEDTAVYFCAILSGDDAFDIWGQGTMVTVSS
VL: DVVMTQSPLSLPVTPGEPASISCRSSQSLLRGNGYNYLDWYLQKPGQSPQLLIYLGSNRASGVPDRFSGSGSGTDFTLKISRVEAEDVGIFYCMQALQSPLTFGGGTKVEIK
As for B15, the EC50 is 0.032 nM in experiment [1] and 0.008 nM in experiment [2].
